Biological target: the molecule itself
Assay: crystal structure; hanging drop vapor diffusion, 26% PEG 3350, 50 mM Tris-HCl pH 8.0; space group P212121; one trimer in the asymmetric unit; 1.1 Å

B1: bacteriophage HS1 tail needle knob (domain or fragment)
chain: RISALEYATTRKKSEVVYSGVSVTIPTAPTNLVSLLKTLTPSSGTLAPFFDTVNNKMVVFNENKTLFFKLSIVGTWPSGTANRSMQLTFSGSVPDTLVSSRNSATTTDNILLATFFSVDKDGFLATNGSTLTIQSNGAAFTATTIKIIAEQ
stoichiometry N: 3

Reference: publication PMC3741392, “The Tip of the Tail Needle Affects the Rate of DNA Delivery by Bacteriophage P22” (PLoS ONE, 2013)
